Test results taken from patent US8252981B2 (Athenix Corp., priority 2006, dated 2012).

B1: GRG23(L3P1.B20): GRG23 variant, SEQ ID NO:21; mutation at V206 (protein)
chain: METDRLVIPGSKSITNRALLLAAAAKGTSVLVRPLVSADTSAFKTAIQALGANVSADGDNWVVEGLGQAPHLDADIWCEDAGTVARFLPPFVAAGQGKFTVDGSEQLRRRPLRPLVDGIRHLGARVSSEQLPLTIEASGLAGGEYEIEAHQSSQFASGLIMAAPYARQGLRVRIPNPVSQPYLTMTLRMMRDFGLETSTDGATVSIPPGRYTARRYEIEPDASTASYFAAASAVSGRSFEFQGLGTDSIQGDTSFFNVLGRLGAEVHWAPNSVTISGPERLNGDIEVDMGEISDTFMTLAAIAPLADGPITITNIGHARLKESDRISAMETNLRTLGVQTDVGHDWMRIYPSTPHGGRVNCHRDHRIAMAFSILGLRVDGITLDDPQCVGKTFPGFFDYLGRLFPEKALTLPG
modifications: GRG23(L3P1.B20)
notes: mutation at V206
B2: GRG23(L3P1.F18): GRG23 variant, SEQ ID NO:25; T274→I (protein)
chain: METDRLVIPGSKSITNRALLLAAAAKGTSVLVRPLVSADTSAFKTAIQALGANVSADGDNWVVEGLGQAPHLDADIWCEDAGTVARFLPPFVAAGQGKFTVDGSEQLRRRPLRPLVDGIRHLGARVSSEQLPLTIEASGLAGGEYEIEAHQSSQFASGLIMAAPYARQGLRVRIPNPVSQPYLTMTLRMMRDFGLETSTDGATVSVPPGRYTARRYEIEPDASTASYFAAASAVSGRSFEFQGLGTDSIQGDTSFFNVLGRLGAEVHWAPNSVIISGPERLNGDIEVDMGEISDTFMTLAAIAPLADGPITITNIGHARLKESDRISAMETNLRTLGVQTDVGHDWMRIYPSTPHGGRVNCHRDHRIAMAFSILGLRVDGITLDDPQCVGKTFPGFFDYLGRLFPEKALTLPG
modifications: GRG23(L3P1.F18)
notes: T274→I
B3: grg23(L3P1B3): GRG23 variant, SEQ ID NO:23; D75→H, E217→K (protein)
chain: METDRLVIPGSKSITNRALLLAAAAKGTSVLVRPLVSADTSAFKTAIQALGANVSADGDNWVVEGLGQAPHLDAHIWCEDAGTVARFLPPFVAAGQGKFTVDGSEQLRRRPLRPLVDGIRHLGARVSSEQLPLTIEASGLAGGEYEIEAHQSSQFASGLIMAAPYARQGLRVRIPNPVSQPYLTMTLRMMRDFGLETSTDGATVSVPPGRYTARRYKIEPDASTASYFAAASAVSGRSFEFQGLGTDSIQGDTSFFNVLGRLGAEVHWAPNSVTISGPERLNGDIEVDMGEISDTFMTLAAIAPLADGPITITNIGHARLKESDRISAMETNLRTLGVQTDVGHDWMRIYPSTPHGGRVNCHRDHRIAMAFSILGLRVDGITLDDPQCVGKTFPGFFDYLGRLFPEKALTLPG
modifications: GRG23(L3P1.B3)
notes: D75→H, E217→K
B4: GRG23(L3P1.023): GRG23 variant, SEQ ID NO:27; R5→H (protein)
chain: METDHLVIPGSKSITNRALLLAAAAKGTSVLVRPLVSADTSAFKTAIQALGANVSADGDNWVVEGLGQAPHLDADIWCEDAGTVARFLPPFVAAGQGKFTVDGSEQLRRRPLRPLVDGIRHLGARVSSEQLPLTIEASGLAGGEYEIEAHQSSQFASGLIMAAPYARQGLRVRIPNPVSQPYLTMTLRMMRDFGLETSTDGATVSVPPGRYTARRYEIEPDASTASYFAAASAVSGRSFEFQGLGTDSIQGDTSFFNVLGRLGAEVHWAPNSVTISGPERLNGDIEVDMGEISDTFMTLAAIAPLADGPITITNIGHARLKESDRISAMETNLRTLGVQTDVGHDWMRIYPSTPHGGRVNCHRDHRIAMAFSILGLRVDGITLDDPQCVGKTFPGFFDYLGRLFPEKALTLPG
modifications: GRG23(L3P1.O23)
notes: R5→H

The molecules below were run on BL21*DE3 competent E. coli cells (assay: Selection for glyphosate resistance on M63+ plates containing 150 mM glyphosate). Details: E. coli clones expressing the variant, 150 mM glyphosate plates.
Type: cell-based
Description: The mutagenized syngrg23 libraries were transformed into E. coli strain BL21*DE3 star (Invitrogen). Following transformation, individual colonies were plated on 1× M63 medium containing 150 mM glyphosate to select for clones that had retained enzymatic activity and growth tolerance.
Library ligations were transformed into BL21*DE3 competent E. coli cells (Invitrogen). The transformations were performed according to the manufacturer's instructions with the following modifications. After incubation for 1 hour at 37° C. in SOC medium, the cells were sedimented by centrifugation (5 minutes, 1000×g, 4° C.). The cells were washed with 1 ml M63+, centrifuged again, and the supernatant decanted. The cells were washed a second time with 1 ml M63+ and resuspended in 200 ul M63+.
The plates were incubated for 36 hours at 37° C.
Colonies identified on glyphosate plates were pinned into 96-well blocks containing LB medium and were grown to an O.D. of about 0.6. IPTG was then added (0.5 mM) and the blocks were incubated overnight at 20° C. to induce protein expression. Protein extracts were prepared from the cell pellets using POP culture reagent (Novagen) and Lysonase (Novagen), and the enzymatic activity in the crude lysates was measured after heating the extracts for 30 min at 37° C.
With B1 the “glyphosate resistance (in words)” value was “retained glyphosate resistance”. With B2 the “glyphosate resistance (in words)” value was “retained glyphosate resistance”. For B3, the “glyphosate resistance (in words)” value was “retained glyphosate resistance”. In the case of B4, the “glyphosate resistance (in words)” value is reported as “retained glyphosate resistance”.
